Earlier results, collected in US6063755A, “Intestinal trefoil proteins” (The General Hospital Corporation, priority 1995, dated 2000).

Tests used:
[1] = laboratory animal; parenteral as well as oral administration
[2] = laboratory animal; parenteral as well as oral administration; remark: listed apart in the source

B1: PSP: porcine pancreatic peptide, pancreatic spasmolytic peptide; thought to include two trefoils (protein)
chain: EKPAACRCSRQDPKNRVNCGFPGITSDQCFTSGCCFDSQVPGVPWCFKPLPAQESEECVMEV
- gastric acid secretion [1]: inhibit
- gastrointestinal motility [2]: inhibit
